Reference: patent US20250382371A1 (NATIONAL INSTITUTES OF BIOMEDICAL INNOVATION HEALTH AND …, published 2025)

Key:
[1] = target: T1, hFCRL1/FcRH1-His (manufactured by R&D Systems) (human, UniProt Q96LA6 17-307); test: SPR (Biacore 8K+), antibody captured by anti-human IgG, hFCRL1/FcRH1-His as analyte; 1:1 Binding model
T1 construct: Bought His-tagged recombinant human FCRL1; The protein in the assay is soluble and is probably only the extracellular part; not shown: His tag
T1 sequence: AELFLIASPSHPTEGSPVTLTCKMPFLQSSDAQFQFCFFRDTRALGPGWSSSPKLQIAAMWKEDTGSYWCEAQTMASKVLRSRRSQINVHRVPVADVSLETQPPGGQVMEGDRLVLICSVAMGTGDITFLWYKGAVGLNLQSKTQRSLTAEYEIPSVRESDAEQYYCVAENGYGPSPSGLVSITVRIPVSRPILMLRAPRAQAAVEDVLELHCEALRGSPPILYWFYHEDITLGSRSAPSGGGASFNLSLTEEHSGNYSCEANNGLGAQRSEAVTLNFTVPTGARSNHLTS
Protocol: (§1) For the purpose of comparing the binding activity of the DK681 chimeric antibody (chDK681) and the DK1142 chimeric antibody (chDK1142) obtained by connecting […] of the DK681 and DK1142 mouse antibodies obtained in Example 4 to a human IgG1 (S239C) constant region with the binding activity of the anti-FCRL1 humanized antibody obtained in Example 10 to human FCRL1, the binding activity to hFCRL1/FcRH1-His (manufactured by R&D Systems) was measured by a surface plasmon resonance method (SPR method) using Biacore8K+ (manufactured by Cytiva).
(§2) The binding activity of the anti-FCRL1 antibody was measured as follows. An anti-human IgG antibody was immobilized on a CM5 sensor chip (manufactured by Cytiva) in accordance with the attached protocol using a Human Antibody Capture Kit (manufactured by Cytiva). An anti-FCRL1 antibody prepared at 5 μg/mL was added to a flow cell on which the Anti-human IgG antibody was immobilized at a flow rate of 10 μL/min for 30 seconds.
(§3) Next, hFCRL1/FcRH1-His, which is prepared stepwise to 5 concentrations by 3-fold dilution from 10000 ng/ml, was monitored at a flow rate of 30 μL/min for a binding reaction for 180 seconds and a dissociation reaction for 400 seconds. For the obtained sensorgram, a kinetic constant of each antibody was calculated by fitting by a Steady state affinity model or a 1:1 Binding model using Bia Evaluation Software (manufactured by Cytiva). The calculated binding rate constant (ka), dissociation rate constant (kd) and dissociation constant [KD] of each antibody are shown in Table 5. The chDK681 is referred to as DK681 F01, and the chDK1142 is referred to as DK1142 F02.

[2] = target: T1, hFCRL1/FcRH1-His (manufactured by R&D …); test: SPR (Biacore 8K+), antibody captured by anti-human IgG, hFCRL1/FcRH1-His as analyte; Steady state affinity model
Protocol: as §1, §2, §3

[3] = target: T2, human FCRL1 (NCBI accession number: NP_443170.1), transiently expressed on 293T cells (human, UniProt Q96LA6 17-429); test: flow cytometry on 293T cells transiently expressing human FCRL1; apparent KD from EC50 of a 4-parameter fit
T2 construct: also called Fc receptor-like protein 1; CD307a
T2 sequence: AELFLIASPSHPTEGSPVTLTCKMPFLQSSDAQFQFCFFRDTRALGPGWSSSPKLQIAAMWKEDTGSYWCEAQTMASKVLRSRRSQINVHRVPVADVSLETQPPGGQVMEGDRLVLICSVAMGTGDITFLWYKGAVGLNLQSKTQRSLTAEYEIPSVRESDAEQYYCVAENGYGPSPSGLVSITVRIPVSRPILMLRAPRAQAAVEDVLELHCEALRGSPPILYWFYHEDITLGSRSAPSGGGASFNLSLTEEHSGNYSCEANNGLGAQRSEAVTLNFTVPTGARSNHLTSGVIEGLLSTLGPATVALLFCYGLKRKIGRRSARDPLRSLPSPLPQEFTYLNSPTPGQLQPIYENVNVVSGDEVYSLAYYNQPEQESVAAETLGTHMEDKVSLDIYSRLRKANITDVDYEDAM
Protocol: (§4) An antigen-specific reactivity of the novel anti-human FCRL1 mouse antibody obtained in Example 4 was evaluated by Flow Cytometry (FCM). FCRL1 antigen-expressing cells were prepared by transiently expressing the recombinant FCRL1 antigen on 293T cells. A codon-optimized cDNA was synthesized based on the amino acid sequence of human FCRL1 (NCBI accession number: NP_443170.1) or cynomolgus monkey FCRL1 (XP_015310712), and a fragment in which the sequence of an internal ribosome entry site (IRES) derived from the encephalomyocarditis virus (EMCV) and the sequence of TagBFP were arranged in tandem was cloned into pcDNA 3.1hygro to construct an expression plasmid vector for human FCRL1 or cynomolgus monkey FCRL1. The purified expression vector was transfected into 293T cells, cells were collected 2 days after transfection, and binding with each antibody was confirmed by FCM.
(§5) As the secondary antibody, when the sample is a mouse antibody, R-Phycoerythrin (PE) F(ab′)₂ Fragment Goat Anti-Mouse IgG (H+L) (Jackson ImmunoResearch) was used, and when the sample is a human antibody or a human chimeric antibody, R-Phycoerythrin (PE) F(ab′)₂ Fragment Goat Anti-Human IgG, Fcγ Fragment Specific (Jackson ImmunoResearch) was used. A solution of each secondary antibody was prepared by diluting the stock solution 200 times with an FCM buffer. After washing once, cells in each well were suspended with 100 μL of FCM buffer, and binding to each antibody was confirmed by flow cytometry (FCM).
(§6) Cells that transiently expressed human FCRL1 or cynomolgus monkey FCRL1 were reacted with a 3-fold dilution series of each antibody starting from 100 nM (15 μg/ml) at 12 points. Data obtained by the FCM was analyzed, and a binding amount of each antibody bound to the cell was calculated as a fluorescence amount MFI derived from the PE-labeled secondary antibody. An antibody concentration and the measured MFI were plotted with respect to a logarithm of the antibody concentration, a saturated binding curve of each antibody was obtained, and regression was performed by a 4-parameter logistic model.

[4] = target: T3, cynomolgus monkey FCRL1 (XP_015310712), transiently expressed on 293T cells (cynomolgus monkey); test: flow cytometry on 293T cells transiently expressing cynomolgus monkey FCRL1; apparent KD from EC50 of a 4-parameter fit
T3 chain: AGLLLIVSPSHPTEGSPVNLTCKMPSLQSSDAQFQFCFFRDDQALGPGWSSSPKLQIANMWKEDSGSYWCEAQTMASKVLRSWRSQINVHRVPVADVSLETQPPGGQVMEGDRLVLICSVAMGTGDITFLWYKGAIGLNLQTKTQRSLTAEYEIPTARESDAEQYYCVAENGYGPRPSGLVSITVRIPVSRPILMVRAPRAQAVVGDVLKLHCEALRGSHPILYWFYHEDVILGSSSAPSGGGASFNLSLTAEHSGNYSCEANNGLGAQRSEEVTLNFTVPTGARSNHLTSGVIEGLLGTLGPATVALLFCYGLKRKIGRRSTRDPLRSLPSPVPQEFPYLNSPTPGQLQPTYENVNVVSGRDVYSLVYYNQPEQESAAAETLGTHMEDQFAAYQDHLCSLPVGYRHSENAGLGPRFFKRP
Protocol: as §4, §5, §6

[5] = target: T1, hFCRL1/FcRH1-His (manufactured by R&D …); test: SPR (Biacore 8K+), antibody captured by anti-human IgG, hFCRL1/FcRH1-His as analyte; Steady state affinity model; kinetic rate constant of the same sensorgram
Protocol: as §1
(§7) The binding activity of the anti-FCRL1 antibody was measured as follows. An anti-human IgG antibody was immobilized on a CM5 sensor chip (manufactured by Cytiva) in accordance with the attached protocol using a Human Antibody Capture Kit (manufactured by Cytiva). […]
as §3, with “The chDK681 is referred to as DK681 F01, and the chDK1142 is referred to as DK1142 F02.” left out

[6] = target: T1, hFCRL1/FcRH1-His (manufactured by R&D …); test: SPR (Biacore 8K+), antibody captured by anti-human IgG, hFCRL1/FcRH1-His as analyte; Steady state affinity model; KD from Steady state affinity model, not from kd/ka
Protocol: as §1, §7
as §3, with “The chDK681 is referred to as DK681 F01, and the chDK1142 is referred to as DK1142 F02.” left out

Row | Kd [1] [nM] | koff [1] [s⁻¹] | kon [1] [M⁻¹ s⁻¹] | Kd [3] [nM] | Kd [4] [nM] | also measured | Binder
1 | 11.1 | 0.0428 | 3.85e+06 |  |  |  | DK1142 humanized antibody DK1142 F22, human IgG1 (S239C) (antibody) heavy: not shown light: DIVMTQSPLSLPVTLGEPASISCRSSQSIVHSNGNTYLEWYLQKPGQSPQLLIYKVSNRFSGVPDRFSGSGSGTDFTLKISRVEAEDVGVYYCFQGSHVPWTFGQGTKVEIK
2 | 12.2 | 0.0274 | 2.24e+06 |  |  |  | DK1142 humanized antibody DK1142 F24, human IgG1 (S239C) (antibody) heavy: not shown light: DVVMTQSPLSLPVTLGEPASISCRSSQSIVHSNGNTYLEWYLQKPGQSPKLLIYKISNRFSGVPDRFSGSGSGTDFTLKISRVEAEDVGVYYCFQGSHVPWTFGQGTKVEIK
3 | 12.8 | 0.0686 | 5.36e+06 |  |  |  | DK1142 humanized antibody DK1142 F21, human IgG1 (S239C) (antibody) heavy: not shown light: DIVMTQSPLSLPVTLGEPASISCRSSQSIVHSNGNTYLEWYLQKPGQSPQLLIYKVSNRFSGVPDRFSGSGSGTDFTLKISRVEAEDVGVYYCFQGSHVPWTFGQGTKVEIK
4 |  |  |  |  |  | Kd [2]: 9.15 nM; koff [2]: 0.00259 s⁻¹; kon [2]: 385000 M⁻¹ s⁻¹ | DK681 humanized antibody DK681 F12, human IgG1 (S239C) (antibody) heavy: not shown light: DIVMTQSPDSLAVSLGERATMNCKSSQSLLYSSNQKNYLAWYQQKPGQSPKLLIYWASTRESGVPDRFSGSGSGTDFTLTISSLQAEDVAIYYCQQYSNYPTFGQGTKVEIK
5 |  |  |  |  |  | Kd [2]: 9.84 nM; koff [2]: 0.00297 s⁻¹; kon [2]: 387000 M⁻¹ s⁻¹ | DK681 humanized antibody DK681 F13, human IgG1 (S239C) (antibody) heavy: not shown light: DIVMTQSPDSLAVSLGERATMNCKSSQSLLYSSNQKNYLAWYQQKPGQSPKLLIYWASTRESGVPDRFSGSGSGTDFTLTISSLQAEDVAIYYCQQYSNYPTFGQGTKVEIK
6 |  |  |  | 2.3 | 1.4 |  | anti-human FCRL1 mouse monoclonal antibody DK1164 (antibody, V domains shown) VH: QVQLQQSGTELVRPGTSVKVSCKASGYAFTNYLIEWVKQRPGQGLEWIGVINPGSGGTDYNKKFKGKAMLTADKSSNTAYMQLSSLTSDDSAVYFCARSNSYAMDYWGQGTSVTVSS VL: DIVMSQSPSSLAVSVGEKVTVSCKSSQSLLYSGNQKNNLAWYKQKPGQSPKLLIYWASTRESGVPDRFTGSGSGTDFTLTMSSVKAEDLAVYYCQQYYSYPWTFGGGTKLEIK
7 |  |  |  | 1.6 | 0.8 |  | anti-human FCRL1 mouse monoclonal antibody DK1141 (antibody, V domains shown) VH: EVRLVESGGRLVQPKGSLRLSCAVSGFTFNTYAMYWIRQAPGKGLEWVARIRSKTNNFATYYADSVKDRFTISRDDSQSMLYLQMNNLKTEDTAMYYCVRDNSGSFDYWGQGTTLTVSS VL: DIVMAQSPSSLAVSVGEKVTMSCKSSQSLLHSSNQKNYLAWYQQKPGQSPNLLIYWASSRESGVPDRFTGSGSGTDFTLTISSVQAEDLATYYCQQYYSYPTFGAGTKLDLK
8 |  |  |  |  |  | koff [5]: 0.00105 s⁻¹; kon [5]: 447000 M⁻¹ s⁻¹; Kd [6]: 6.65 nM | DK681 chimeric antibody (chDK681), human IgG1 (S239C) (antibody, also called DK681 F01; not shown: human kappa light chain constant region (pFUSE2-CLIg-hk vector)) heavy: not shown light: DIVMSQSPSSLAVSVGEKVTMSCKSSQSLLYSSNQKNYLAWYQQKPGQSPKLLIYWASTRESGVPDRFTGSGSGTDFTLTISSVKAEDLAIYYCQQYSNYPTFGSGTKLEIK
9 |  |  |  | 1 | 0.8 |  | anti-human FCRL1 mouse monoclonal antibody DK681 (antibody, V domains shown) VH: QVQLQQPGAELVKPGTSVKLSCKASGYTFTRYWMHWVKQRPGQGLEWIGRIDPNSGGSKYNEKFKSKATLTVDKTSSSAYMQLNSLTSEDSAVYYCTRVNSGAMDYWGQGTSVTVSS VL: DIVMSQSPSSLAVSVGEKVTMSCKSSQSLLYSSNQKNYLAWYQQKPGQSPKLLIYWASTRESGVPDRFTGSGSGTDFTLTISSVKAEDLAIYYCQQYSNYPTFGSGTKLEIK
10 |  |  |  | 1.4 | 1.1 |  | anti-human FCRL1 mouse monoclonal antibody DK1142 (antibody, V domains shown) VH: QVQLQQSGPELVKPGASVRISCKASGYTFTSYNIHWVKQRPGQGLEWIGWIYPGDGNPKYNEKFKGKTTLTADKSSSTAYMQLSSLTSEDSAVYFCARRIHYYDYFDYWGQGTTLTVSS VL: DVLMTQTPLSLPVSLGDQASISCRSSQSIVHSNGNTYLEWYLQKPGQSPKLLIYKVSNRFSGVPDRFSGSGSGTDFTLKISRVEADDLGVYYCFQGSHVPWTFGGGTKLEIK
11 | 11.4 | 0.0518 | 4.55e+06 |  |  |  | DK1142 chimeric antibody (chDK1142), human IgG1 (S239C) (antibody, also called DK1142 F02; not shown: human kappa light chain constant region (pFUSE2-CLIg-hk vector)) heavy: not shown light: DVLMTQTPLSLPVSLGDQASISCRSSQSIVHSNGNTYLEWYLQKPGQSPKLLIYKVSNRFSGVPDRFSGSGSGTDFTLKISRVEADDLGVYYCFQGSHVPWTFGGGTKLEIK
12 |  |  |  | 1.5 | 1 |  | anti-human FCRL1 mouse monoclonal antibody DK1166 (antibody, V domains shown) VH: QVQLQQSGPELVKPGASVRISCKASGYTFTSYNIHWVKQRPGQGLEWIGWIYPGDGNTKYNEKFKGKTTLTADKSSSTAYMQLSSLTSEDSAVYFCARRIHYFDYFDYWGQGTTLTLSS VL: DVLMTQTPLSLPVSLGDQVSISCRSGQTIVHSNGNTYLEWYLQKPGQSPKLLIYKVSNRFSGVPDRFSGSGSGTDFTLRISRVEAEDLGVYYCFQGSHVPWTFGGGTKLEIK
